Experimental data: patent publication US8741840B2, “BMP-7 for use in treating neointimal hyperplasia” (Washington University, priority 2008, dated 2014)

Assays:
[1] = system: AV anastomosis NH lesion in mice; assay: Neointimal hyperplasia lesion formation at arteriovenous fistula anastomosis in CKD and sham mice; format: in vivo, mouse
Excerpt: Six weeks after creation of CKD and sham mice as described above, animals underwent an AV fistula creation by anastomosing the left common carotid artery to the jugular vein in an end-to-side fashion. Under a sterile condition, a vertical incision was made in the left neck with the left common carotid artery and the adjacent external jugular vein carefully dissected out. The common carotid artery clamp was placed at the proximal portion with an 11-0 nylon suture and the common carotid artery was divided just proximal to the bifurcation. Next, the jugular vein was clamped proximally and distally and punctured in the middle portion with a 27 G syringe. After filling this vein segment with heparinized saline, the venotomy of 0.7 mm in length was performed. […]
Three weeks after AV fistula creation, animals were euthanized, and the AV anastomoses were perfusion-fixed via the left ventricle at 100 mm Hg pressure as described previously (Leidenfrost J E, et al., Am J Pathol. 2003; 163(2):773-778).^53 Before perfusion fixation, blood was drawn from the left ventricle for the biochemical analysis. Blood urea nitrogen (BUN), phosphorus, and calcium were measured by autoanalyzer techniques in the Animal Facility Clinical Laboratory at Washington University in St. Louis, Mo. […]

hVSMC = assay: RT-PCR of contractile VSMC markers in hVSMC; format: cell-based, human
Experimental: Cell Culture: Human adult aorta were obtained from seven cadaveric organ donors rejected because of atherosclerosis by Mid-America Transplant Services (St. Louis, Mo.) and enzymatically digested to obtain Human Smooth Muscle Cells (HSMC). Medial tissue was separated from the adventia and intima and digested with collagenase type I (Worthington, Lakewood, N.J.) 2 mg/ml for 1 hr, and washed with Hank's balanced salt solution (HBSS). Further digestion followed with collagenase type II 1 mg/ml (Worthington, Lakewood, N.J.) and elastase 0.25 mg/ml (Worthington, Lakewood, N.J.) for 4 hrs. Cell suspensions were washed twice with HBSS and cultured in T-75 flasks for three weeks in a 95%/5% air/CO2 humidified environment at 37° C. The growth medium used was DMEM containing […] glucose (high glucose), 10% fetal bovine serum (FBS, Atlas, Fort Collins, Colo.), 1 mM sodium pyruvate, 100 units/ml Penicillin and […] Streptomycin (Sigma, St Louis, Mo.). Cell purity was assessed by positive immunostaining for α-smooth muscle actin and calponin and for the absence of von Willebrand factor. In all experimental protocols, cells were seeded at 1×10^5 cells/well in six-well plates. Medium was changed on the first day and every third day thereafter. In all cases, cells used were between passages two and five (Table 3).
RT-PCR: RNA was extracted from cell cultures using RNeasy Mini Kits (Qiagen, Valencia, Calif.). Semi-quantitative RT-PCR was conducted using Roche 1st Strand cDNA Synthesis Kit (Indianapolis, Ind.) and PCR kit from Invitrogen (Grand Island, N.Y.) according to manufacturer's instructions using a two-step method. […] The number of cycles necessary to amplify cDNA but remain within the exponential amplification range was determined for each primer set. […] Genomic contamination was assessed by heat inactivation of the reverse transcriptase prior to RT-PCR. Primers were designed using Vector NTI soft ware (Invitrogen, Grand Island, N.Y.) and optimal conditions for each prime pairs were determined (Table 4). […] The band intensity was analyzed first by scanning the gel on a Typhoon 9410 gel imager (Amersham Biosciences), quantified by using TotalLab software v2003.03 (Nonlinear Dynamics, Durham, N.C.) and normalized for loading by comparison to GAPGH. […]
Expression of contractile VSMC markers in human cells. […] Calponin (Panel A), alpha smooth muscle actin (alpha SMA) (Panel B), heavy chain myosin (MHSCM) (Panel C), and SM22 alpha (Panel D) message levels detected by RT-PCR were low in hVSMC in basal conditions (open bars, Group A) and in the presence of high phosphorus media (black bars, Group B). […] The data in Panels A-D were normalized to the expression level in basal culture conditions and expressed as fold induction, mean±SEM, n=3. […]

[2] = system: LDLR−/− mice with CKD on high fat diet; settings: LDLR-/- mice with CKD fed high fat diets; previous studies (Davies 2003; Davies 2005); cited from earlier work

B1: BMP-7: bone morphogenetic protein-7 (osteogenic protein-1), mineralization-countering morphogen; provided by Johnson and Johnson (protein, listed as Homo sapiens)
chain: STGSKQRSQNRSKTPKNQEALRMANVAENSSSDQRQACKKHELYVSFRDLGWQDWIIAPEGYAAYYCEGECAFPLNSYMNATNHAIVQTLVHFINPETVPKPCCAPTQLNAISVLYFDDSSNVILKKYRNMVVRACGCH
[1]; CKD animals, BMP-7 100 μg/kg intraperitoneally twice a week, P<0.01 (FIG. 12)
  NH lesion formation induced by CKD: eliminated the stimulation of NH lesion formation induced by CKD
[1]; sham operated animals, BMP-7 100 μg/kg intraperitoneally twice a week (FIG. 12)
  NH lesion development: no effect
hVSMC; high phosphorus media plus BMP-7 (FIG. 8A)
  Calponin message level: induced expression of each of the marker proteins
hVSMC; high phosphorus media plus BMP-7 (FIG. 8B)
  alpha smooth muscle actin (alpha SMA) message level: induced expression of each of the marker proteins
hVSMC; high phosphorus media plus BMP-7 (FIG. 8C)
  heavy chain myosin (MHSCM) message level: induced expression of each of the marker proteins
hVSMC; high phosphorus media plus BMP-7 (FIG. 8D)
  SM22 alpha message level: induced expression of each of the marker proteins
[2]
  development of aortic calcification (prevention studies): prevented the development of aortic calcification
